# Laboratory results: the nanobody polyreactivity screen of Harvey et al. (2022)
# Experiment: yeast display, Sf9 membrane polyspecificity reagent, FACS + sequencing; frameworks hold sequencing errors
# Outline: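 Synthetic nanobody libraries on Saccharomyces cerevisiae BJ5465 were galactose-induced for 36–48 hours, stained 1 hour at 4 °C with 10% biotinylated, detergent-solubilized Sf9 membrane reagent and enriched on streptavidin microbeads. FACS then separated cells into low and high (top ~1%) gates by anti-HA (expression) and streptavidin (reagent binding) fluorescence. Genes were colony-PCR amplified, MiSeq 2 × 250 sequenced and CDR-length filtered. A clone's polyreactivity label is that of its gate of origin.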
row,Sequence,polyreactivity (PSR sort gate)
1,QVQLVESGGGLVQAGGSLRLSCAASGRILKYNAMGWYRQAPGKERELVAAISYRGGSTYYADSVKGRFTISRDNAKNTVYLQMNSLKPEDTAVYYCNAGGGILNGPLFDYWGQGTQVTVSS,low polyreactivity
2,QVQLVESGGGLVQAGGSLRLSCAASGRILLRYAMGWYRQAPGQERELVAAISQRGGRTYYADSVKGRFTISRDNAKNTVNLQMNSLKPEDTAVYYCAAASQQRSPRYGYWGQGTQVTVSS,high polyreactivity
3,QVQLVESGGGLVQAGGSLRLSCAASGRILLYKAMGWYRQAPGKERELVAAISRSGGSTYYADSVKGRFTISRDNAKNTVYLQMNSLKPEDTAVYYCAAQHGYPRYYFWGQGTQVTVSS,high polyreactivity
4,QVQLVESGGGLVQAGGSLRLSCAASGRILLYNAMGWYRQAPGKERELVAAISRSGGYTYYADSVNWRFTISRDNAKNTVYLQMNSLKPEDTAVYYCAAQHGYPRYYYWGQGTQVTVSS,high polyreactivity
5,QVQLVESGGGLVQAGGSLRLSCAASGRILPGYAMGWYRQAPGKERELVAAIRGNGDSTYYADSVKGRFTISRDNAKNTVYLQMNSLKPEDTAVYFCAARRVSTIARDSYRGRKYGYWGQGTQVTVSS,low polyreactivity
6,QVQLVESGGGLVQAGGSLRLSCAASGRILPYNVMGWYRQAPGKEWEFVAAITGSGGDTYYADSVKGRFTISRDTAKNTVYLQMNSLKPEDTAVYYCAAAPYIGGSFGQTPGSGYWGQGTQVTVSS,low polyreactivity
7,QVQLVESGGGLVQAGGSLRLSCAASGRILRPYAMGWYRQAPGKERELDAGITVRGGTTYYADSVKGRFTISRDNAKNTVYLQMNILKPEDTAVYYCAATDIHYGPSYIPYWYGYCGQGTQVTVSS,high polyreactivity
8,QVQLVESGGGLVQAGGSLRLSCAASGRILRYYAMGWYRQAPGKERELVASITSGGSTYYADSVKGRFTISRDNAKNTVSLQMNSLKPEDTAVYYCAARNSYRVDLSYYAYDYWGQGTQVTVSS,high polyreactivity
9,QVQLVESGGGLVQAGGSLRLSCAASGRILSSNAMGWYRQAPRKERELVAAISWSGGSTYYADSVKGRFTISRDNAKNTVYFQMNSLKPEDTAVYYCAAPFTTTFDYWGKGTQVTVSS,low polyreactivity
10,QVQLVESGGGLVQAGGSLRLSCAASGRILSVYAMGWYRQAPGKERELVAAIDYSGGSTNYADSVKGRFTISRDNAKNTVYLQMNSLKPEDTAVYYCNREGGAIAWRYLLEYLYSWGQGTQVTVSS,low polyreactivity
11,QVQLVESGGGLVQAGGSLRLSCAASGRILSVYAMGWYRQAPGKERELVAAIEYSGGSTNYADSVKVRFTISRDTSKHTVYLLMNSLLPEDTAVYYCNGEGGAIAWRYLLEYLYSWGQGTQVTVSS,low polyreactivity
12,QVQLVESGGGLVQAGGSLRLSCAASGRILVLNAMGWYRQAPGKERELVADITSGGSTYYADSVKGRFTISRDNAKNTVYLQMNSLKPEDTAVYYCAADLPYSLDYRSEDDYWGQGTQVTVSS,low polyreactivity
13,QVQLVESGGGLVQAGGSLRLSCAASGRILVPYAMGWYRQAPGKERELVDAISSGGSTKYADSVKGRFTISRDNAKNTVYLQMNSLKPEDTAVYYCASRIGSGSYPYPRYDYWGQGTQVTVSS,high polyreactivity
14,QVQLVESGGGLVQAGGSLRLSCAASGRILVQNDMGWYRQEPGKERELVAAIRSDGSTSYADSVKGRFTISRDNAKNTVYLQMNSLKPEDTAFYYCAARIDWTGGEYDYWGQGTQVTVSS,low polyreactivity
15,QVQLVESGGGLVQAGGSLRLSCAASGRILVYNTMGWSRQAPGKERELVAGIRRGGSTDYADSVKGRFTISRDNAKNTVYLQMNSLNAEDTAVYYCNARYSTGYTKLGYWGQGTQVTVSS,low polyreactivity
16,QVQLVESGGGLVQAGGSLRLSCAASGRILVYYAMGWYRQAPGKERELVAAIRSSGSSTYYSDSVKGRFTISRDNAKNTVYLQMNSLKPEDTAVYYCAAYYYIGGKYGSQVYEYDYWGQGTQVTVSS,low polyreactivity
17,QVQLVESGGGLVQAGGSLRLSCAASGRILWGYAMGWYRQAPGKERELVAAITWSTGTTSYADSVKGRFTISRDNAKNTVYLQMNSLKPEDTAVYYCARRQWRTQLVYGSRRDYWGQGTQVTVSS,low polyreactivity
18,QVQLVESGGGLVQAGGSLRLSCAASGRILWNAMGWYRQAPGKERELVAGITYSGGSTYYADSVKGRFTISRDNAKNTVYLQMNSLKPEDTAVYYCNAGVGARESDYWGQGTQVTVSS,low polyreactivity
19,QVQLVESGGGLVQAGGSLRLSCAASGRILWSYAMGWYRQAPGKEREFVATINRSGGNTHYADSVKGRFTISRDNAKNTVYLQMNSLKPEDTAVYYCAARNLVPYGYQGLRYYYWGQGTQVTVSS,high polyreactivity
20,QVQLVESGGGLVQAGGSLRLSCAASGRILYIYAMGWYRQAPGKERELVASISWTDGSTYYADSVKGRFTISRDNAKNTVYLQMNSLKPEDTAVYYCNAAYYYYWDLKKYNYWGQGTQVTVSS,low polyreactivity
21,QVQLVESGGGLVQAGGSLRLSCAASGRILYIYAMGWYRQAPGKERELVASISWTDGSTYYADSVKGRFTISRDNAKNTVYLQMNSLKPEDTAVYYCNAAYYYYWELKKYNYWGPGTQVTVSS,low polyreactivity
22,QVQLVESGGGLVQAGGSLRLSCAASGRILYNYAMGWYRQAPGKERELVAAISSGGSTNYADSVKGRFTISRDNAKNTVYLQMNSLKPEDTAVYYCAAYRGHSWRGLYRWSDYDYWGQGTQVTVSS,low polyreactivity

row,Sequence,polyreactivity (PSR sort gate)
1,QVQLVESGGGLVQAGGSLRLSCAASGRILYRNTMGWYRQAPGKERELVAAISRSGGSTYYADSVKGRFTISRDNAKNTVYLQMNSLKPEDTAVYYCAKSVVARGASTYIGGFYYWGQGTQVTVSS,high polyreactivity
2,QVQLVESGGGLVQAGGSLRLSCAASGRILYYYAMGWYRQAPGKERELVAAISWSGGSTYYADSVKGRFTISRDNAKNTVYLQMNSLKPEDTAVYYCAADWRGYRLERAYDYWGQGTQVTVSS,low polyreactivity
3,QVQLVESGGGLVQAGGSLRLSCAASGRILYYYDMGWYRQAPGKERELVARIGGTYYADSVKGRFTISRDNAKNTVYLQMNSLKPEDTAVYYCAAEYGYDFFRSYQEYGYWGQGTQVTVSS,low polyreactivity
4,QVQLVESGGGLVQAGGSLRLSCAASGRIQYNAMGWYRQAPGKEREFVAAISWSGGTTYYADSVKGRFTISRDNAKNTVYLQMNSLKPEDTAVYYCATPYTHWGQGTQVTVSS,high polyreactivity
5,QVQLVESGGGLVQAGGSLRLSCAASGRISGLYAMGWYRQAPGKERELVAAITTSADRTYYADSVKGRFTISRDNAKNTVYLQMNSLKPEDTAVYYCAADSSRPRMYYWGQGTQVTVSS,low polyreactivity
6,QVQLVESGGGLVQAGGSLRLSCAASGRISGWYAMGWYRQAPGKERELVASISSSGGSTYYADSVEGRFTISRDNAKNTVYFQMNSLKPEDTAVYYCAVRRYNWSFYRGYDYWGQGTQVTVSS,high polyreactivity
7,QVQLVESGGGLVQAGGSLRLSCAASGRISGYAMGWDRQAPGKERELVAAISTRGGTTYYADSVKGRFTISRDNAKNTVQLQMNSLKPEDTAVYYCNAASSRWPEYDYWGQGTQVTVSS,high polyreactivity
8,QVQLVESGGGLVQAGGSLRLSCAASGRISHRNAMGWYRQAPGKERELVAAITSGGSTNYADSVKGRFTISRDNAKNTVYLQMNSLKPEDTAVYYCTTTTYHWYYYRWEIFDYWGQGTQVTVSS,low polyreactivity
9,QVQLVESGGGLVQAGGSLRLSCAASGRISPNNVMGWYRQAPGKERELVAVISRSGDRTNYADSVKGRFTISRDNAKNTVYLQMNSLKPEDTAVYYCAARVVADKYRYDYWGQGTQVTVSS,high polyreactivity
10,QVQLVESGGGLVQAGGSLRLSCAASGRISQGYAMGWYRQAPGKERELVAGISRSGGSTYYADSVKGRFTISRDNAKNTVYLQMNSLKPEDTAVYYCAARVRGRNASDYDYYYWGQGSQVTVSS,high polyreactivity
11,QVQLVESGGGLVQAGGSLRLSCAASGRISRVYVMGWYRQAPGKERELVAAISFRGGSTFYADSVKGRFTISRDNAKNTVYLQMNSLKPEDTAVYYCAATVYPLAYDYWGQGTQVTVSS,high polyreactivity
12,QVQLVESGGGLVQAGGSLRLSCAASGRISSGYAMGWYRQAPGKERELVAAISSIGGRTYYADSVKGRFTISRDNAKNTVYLQMNSLKPEDTAVYYCNTYPYIQRTWWYDYWGQGTQVTVSS,high polyreactivity
13,QVQLVESGGGLVQAGGSLRLSCAASGRISTFYAMGWYRQAPGKERELVAGIRWRGGSTYYADSVKGRFTISRDNAKNTVYLQMNSLKPEDTAVYYCNAVPRRRRYSRLGYWGQGTQVTVSS,high polyreactivity
14,QVQLVESGGGLVQAGGSLRLSCAASGRISTTNAMGWYRQAPGKERELVASITSGGGTNYADSVKGRFTISRDNAKNTVYLQMNCLKPEDTAVYYCAKRRSYFLHSYYSYGYWGQGTQVTVSS,high polyreactivity
15,QVQLVESGGGLVQAGGSLRLSCAASGRISTYNAMGWYIQAPGKERELVASITGGGSTNYADSVKGRFTISRDNAKNTVYLQMNSLKPEDTAVYYCNAKARGQRGYRKIYGYDYWGQGTQVTVSS,high polyreactivity
16,QVQLVESGGGLVQAGGSLRLSCAASGRISVFNAMGWYRQAPGKDRELVAAITNGGSTNYADSVKVRFTISRDNAKNTVYLLMNSLKPEDTAVYDCAASVGTYAYGRTVYRYDYWGQGTQVTVSS,low polyreactivity
17,QVQLVESGGGLVQAGGSLRLSCAASGRISVFNAMGWYRQAPGKERELVATITDGGSTYYADSVKGRFTISRDNAKNTVYLQMNSLKPEDTAVYYCAKKQVTTDVSSETFVLEMDYWGQGTQVTVSS,low polyreactivity
18,QVQLVESGGGLVQAGGSLRLSCAASGRISVFYAMGWYRQAPGKERELVAAITRSGTTKYADSVKGRFTISRDNAKNTVYLQMNSLKPEDTAVYYCAADSSRFFYGVYNYRQYGYWGQGSQVTVSS,high polyreactivity
19,QVQLVESGGGLVQAGGSLRLSCAASGRISVVNAMGWYRQAPGKERELVATINRGGSTYADSVKGRFTISRDNAKNTVYLQMNSLKPEDTAVYYCAATSFSVRFTRYYYWGQGTQVTVSS,high polyreactivity
20,QVQLVESGGGLVQAGGSLRLSCAASGRISYRNAMGWYRQAPGKERELVATITNGGSTYYADSVKGRFTISRDNAKNTVYLQMNSLKPEDTAVYYCAKEVWNWGPYYYWGQGTQVTVSS,low polyreactivity
21,QVQLVESGGGLVQAGGSLRLSCAASGRITFSHNTMGGSRQAPGKERELVAAISSGGRTNYADSVKGRFTISRDNAKNTVYLQMNSLKPEDTAVYYCARESHYDFIYDGMDYWGQGTQVTVSS,low polyreactivity
